Measured values as given in patent US20090269346A1.

Columns and labels:
LRP2 CR89 (human) [1] = biological target: LRP2 CR89 (human) (UniProt P98164); assay: phage binding: equal amounts of phage incubated in wells coated with LRP2 CR89, bound phage eluted and titered; no EDTA
LRP2 CR89 (human) [2] = biological target: LRP2 CR89 (human) (UniProt P98164); assay: phage binding: equal amounts of phage incubated in wells coated with LRP2 CR89, bound phage eluted and titered; in the presence of 50 mM EDTA

Sequence of LRP2 CR89 (human) (P98164 1025-1102): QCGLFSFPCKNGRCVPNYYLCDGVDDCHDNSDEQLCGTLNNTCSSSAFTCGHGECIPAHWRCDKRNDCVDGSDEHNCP

B1: RAP phage (protein, not shown: large carriers)
chain: YSREKNQPKPSPKRESGEEFRMEKLNQLWEKAQRLHLPPVRLAELHADLKIQERDELAWKKLKLDGLDEDGEKEARLIRNLNVILAKYGLDGKKDARQVTSNSLSGTQEDGLDDPRLEKLWHKAKTSGKFSGEELDKLWREFLHHKEKVHEYNVLLETLSRTEEIHENVISPSDLSDIKGSVLHSRHTELKEKLRSINQGLDRLRRVSHQGYSTEAEFEEPRVIDLWDLAQSANLTDKELEAFREELKHFEAKIEKHNHYQKQLEIAHEKLRHAESVGDGERVSRSREKHALLEGRTKELGYTVKKHLQDLSGRISRARAEAETG
modifications: Displayed on M13 phage as an N-terminal fusion to pIII; pIII letters not given.
- cfu recovered (LRP2 CR89 (human) [1]): 520 cfu
- cfu recovered (LRP2 CR89 (human) [2]): 146 cfu
